Assay results from patent publication KR20230086338A (dated 2023).

Molecular target: T1, 재조합 인간 MUC1-C 항원 (MUC1-C ECD) (human, UniProt P15941 1098-1158)
T1 construct: also called 재조합 MUC1-C 단백질; 재조합 hMUC1-항원
T1 sequence: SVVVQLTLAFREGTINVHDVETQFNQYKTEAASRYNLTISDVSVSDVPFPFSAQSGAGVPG
Assay: BLI (Octet RED 96); MUC1-C antigen immobilised on AR2G sensor at 5 μg/mL, antibody 0.626-20 nM, 1:2 binding model

B1: KC-001 항체 (인간 MUC1-C 항체 KC-001) (antibody, V domains shown)
VH: QVQLVESGGGLVQPGGSLRLSCAASGFTFSNYGMSWVRQAPGKGLEWVSSISNGGGSTSYADSVKGRFTISRDNSKNTLYLQMNSLRAEDTAVYYCAGWGIRGVTRPYYYYGMDVWGQGTTITVSS
VL: DIVMTQTPLSLSVTPGQPASISCKSSQSLLHSDRKTYLYWYLQKPGQSPQLLIYEASNRFSGVPDRFSGGGSGTDFTLKISRVEADDVGIYYCMQGLHPIT
notes: Human antibody from a naive scFv phage library; also called 항-MUC1 항체
With B1 the Kd was 6.49 nM.
